Laboratory results from patent US20230192820A1 (published 2023).

B1: MAb362 (antibody, V domains shown)
VH: QVQLVESGGGVVQPGRSLRLSCAASGFSFSSYGMHWVRQAPGKGLEWVAVIWYDGSDKYYADSVKGRFTISRDNSKNTLYLQLNSLRAEDTAIYYCARERYFDWIFDFWGQGTLVTVSS
VL: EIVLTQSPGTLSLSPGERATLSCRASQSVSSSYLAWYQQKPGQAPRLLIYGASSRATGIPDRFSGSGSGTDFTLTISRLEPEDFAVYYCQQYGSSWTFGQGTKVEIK
B2: MAb362 IgG1 (antibody, V domains shown)
VH: B1 VH
VL: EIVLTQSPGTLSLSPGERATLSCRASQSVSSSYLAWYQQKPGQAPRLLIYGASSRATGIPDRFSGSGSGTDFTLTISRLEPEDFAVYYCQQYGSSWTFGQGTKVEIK
B3: MAb362 IgA1 (monomeric) (antibody, V domains shown)
VH: B1 VH
VL: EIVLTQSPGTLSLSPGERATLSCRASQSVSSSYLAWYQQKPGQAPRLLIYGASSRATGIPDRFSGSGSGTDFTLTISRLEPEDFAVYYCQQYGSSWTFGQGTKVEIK

What was measured:
[1] = molecular target: SARS-CoV-2 S protein S1 subunit (amino acids 1-604), Myc/His tagged (SARS-CoV-2, UniProt P0DTC2 14-604)
[2] = molecular target: SARS-CoV-2 spike (S) protein on virus or pseudovirus particles (SARS-CoV-2, UniProt P0DTC2 14-1273); test: cell-based or functional assay
[3] = molecular target: SARS-CoV-2 S protein RBD (amino acids 319-541) (SARS-CoV-2, UniProt P0DTC2 319-541)
[4] = molecular target: SARS-CoV S protein RBD (amino acids 270-510) (SARS-CoV (Urbani strain), UniProt P59594 270-510)

| Binder | EC50 [1] | plaque reduction neutralization test (PRNT), EC50 [2] | Kd [3] | Kd [4] | neutralization of SARS-CoV-2 pseudovirus, IC50 [2] |
| --- | --- | --- | --- | --- | --- |
| B1 | ~40 nM | ~5 µg/mL |  |  |  |
| B2 |  |  | 13 nM | 1.3 nM | 58.7 µg/mL |
| B3 |  |  | 0.3 nM | 1.4 nM | 1.26 µg/mL |
